Results reported in patent US11219645B2, “Tumor infiltrating lymphocytes for treatment of cancer” (Duke University, priority 2015, dated 2022).

Key:
activated CD8+ T cells [1] = assay: C3aR and C5aR antagonists in vitro blockade, IL-10 intracellular staining; assay type: cell-based, mouse; settings: 10 μmol/L of each antagonist, 6 days; FIG. 6J
Protocol: C3aR and C5aR Antagonists In Vitro Blockade: Mouse CD8+ T cells from lymph nodes were enriched using a negative selection kit (Stemcell Technologies; Cat #19853) and activated by plate-bound anti-CD3 (2 μg/mL) and anti-CD28 (1 μg/mL) antibodies for 72 hours. The activated CD8+ T cells were then cultured in complete medium alone (control), 10 μmol/L SB290157 (C3aR antagonist, C3aRA), 10 μmol/L PMX205 (C5aR antagonist, C5aRA), or a combination of 10 μmol/L SB290157 and 10 μmol/L PMX205 for 6 days. The IL10 expression was determined by intracellular staining.

[2] = cancer patients; cited from earlier work
human CD4+ T cells = assay: Impact of IL-10 on effector cytokine production in human CD4+ T cells; assay type: cell-based; settings: 100 U/ml rIL-2 plus 500 U/ml rIL-10 versus rIL-2, 48 hrs; FIG. 9D
Protocol: (§1) B16F10 melanoma cells (2×10^5/mouse) were subcutaneously inoculated into WT and C3−/− mice. The draining lymph nodes and tumors were dissected and treated with collagenase and DNase to obtain single cell suspensions. Leukocytes were pre-gated on CD45 positive cells. FIG. 9A show the CD11b and GR1expression in leukocytes from dLNs as analyzed by flow cytometry. […] WT and C3−/− mice were subcutaneously inoculated with B16F10 cells (2×10^5/mouse). IFNγ- and TNFα-producing CD4+ TILs were analyzed by flow cytometry (n=4 mice per group) at day 12 after tumor inoculation. […] CD4+ T cells were enriched from PBMCs of healthy donors and activated by anti-CD3/CD28 antibodies in vitro for 48 hrs. The activated CD4+ T cells were then cultured with 100 U/ml rIL-2 or 100 U/ml rIL-2 plus 500 U/ml rIL-10 for 48 hrs. The cells were activated using a Cell Activation Cocktail (Biolegend) for 6 hours before intracellular IFNγ and TNFα staining. The expression of IFNγ and TNFα was analyzed by flow cytometry (n=3). […] Mouse CD4+ T cells were enriched from the spleens of naïve mice using a negative selection kit and activated by anti-CD3/CD28 antibodies for 48 hours in vitro. The activated CD4+ T cells were then cultured with 100 U/ml rIL-2 or 100 U/ml rIL-2 plus 500 U/ml rIL-10 for 48 hrs. […] The expression of IFNγ and TNFα was analyzed by flow cytometry (n=3). […]

[3] = tested on: TILs from human lung tumors; assay: In vitro expansion of human TILs cultured with IL-2 and/or IL-10; assay type: cell-based; settings: FIG. 5A
Protocol: (§2) The plates were placed in a humidified 37° C. incubator with 5% CO2.
as §2

activated CD8+ T cells [4] = assay: PD-1 expression on CD8+ T cells activated with anti-CD3/CD28 in the presence of IL-10; assay type: cell-based, mouse; settings: 500 U/mL IL-10, 48 hours, 3 μg/mL anti-CD3/CD28; FIG. 7B
Protocol: (§3) B16F10 melanoma cells (2×10^5/mouse) were subcutaneously inoculated into wild-type (WT) and C3−/− mice. […] T cells from lymph nodes of naïve mice were activated by incubation with 3 μg/mL anti-CD3/CD28 antibodies for 48 hours with or without 500 U/mL IL-10 and analyzed for PD-1 expression. FIGS. 7C-D show PD-L1 expression on tumor cells developed in WT and C3−/− mice. Bl6F10 melanoma cells (2×10^5/mouse) or E0771 breast cancer cells (1×10^6/mouse) were subcutaneously inoculated into WT and C3−/− mice. PD-L1 expression in CD45-B16 tumor cells (FIG. 7C) and CD45-E0771 cells (FIG. 7D) was measured by flow cytometry at day 12 and day 19, respectively. […] B16F10 cells were cultured with or without 500 U/mL IL-10 for 5 days. PD-L1 expression was analyzed by flow cytometry. […] B16F10 cells were transduced with control virus or single-guide RNA (sgRNA)—targeting PD-L1 virus and selected with puromycin to generate a stable PD-L1-silenced polyclonal cell line. […] Control or PD-L1-silenced B16F10 melanoma cells (4×10^5/mouse) were subcutaneously inoculated into C3−/− and C3−/− Tiger mice. GFP expression in CD3+CD8+ TILs was analyzed by flow cytometry. […] Tumor development was monitored every day starting from day 7 after implantation (n=7, 7, 9, and 8 mice, respectively). […] Significance was determined in FIG. 7H and FIG. 7I by Student t test.*, P≤0.05; **, P≤0.01.

B16F10 cells = assay: PD-L1 expression in tumor cells after IL-10 stimulation; assay type: cell-based, mouse; settings: 500 U/mL IL-10 for 5 days; FIG. 7E
Protocol: as §3

[5] = tested on: Human TILs from lung cancer patients; assay: T cell exhaustion markers on CD8+ TILs after IL-10 culture, flow cytometry; assay type: cell-based; settings: IL-2 plus IL-10 versus IL-2, 21 days culture; FIG. 10
Protocol: T cells were activated by anti-CD3/CD28 antibodies for 24 hrs. The surface expression of PD-1, LAG-3 and TIM-3 was analyzed by flow cytometry. FACS profiles are representative of three patients.

mouse CD4+ T cells = assay: Impact of IL-10 on effector cytokine production in mouse CD4+ T cells; assay type: cell-based; settings: 100 U/ml rIL-2 plus 500 U/ml rIL-10 versus rIL-2, 48 hrs; FIG. 9E
Protocol: as §1

[6] = tested on: CD8+ TILs from human lung tumors; assay: mRNA expression profiling (microarray) of expanded CD8+ TILs; assay type: cell-based; settings: IL-10/IL-2-cultured versus IL-2-cultured CD8+ TILs
Protocol: Microarray Data Analysis: TILs from human lung tumors were in vitro—expanded for 20 days with 6,000 U/mL rIL2 and/or 100 U/mL rIL10. The expanded TILs were activated by incubation in 3 μg/mL anti-CD3/CD28 antibodies for 6 hours. The CD8+ TILs were enriched by negative selection using a kit (Stemcell Technologies). RNA was extracted using TRIzol reagent (Life Technologies) according to the instructions. Microarray analyses were performed using human U133A 2.0 arrays by the Duke University microarray facility. Raw intensities from the CEL files were analyzed using PartekGenomics Suite (Partek Incorporated) with standard background correction to generate an RMA (robust multiarray average intensity) on a log 2 scale for each probe set. Probe sets were filtered for “present” detection in two or more arrays, and the interquartile intensity range was >0.5. The filtered RMA intensities were then analyzed for differential expression using the advanced ANOVA, and differentially expressed genes were generated with/without FDR-adjusted P values using the Benjamini-Hochberg method.

NC(N)=NCCC[C@H](NC(=O)COCC(c1ccccc1)c1ccccc1)C(=O)O [SB 290157]
IL-10 expression in activated CD8+ T cells (activated CD8+ T cells [1]): slightly increased IL-10 expression

Pegylated IL-10: Pegylated IL-10 given to cancer patients
adverse effect profile [2]: manageable adverse effect profile

hydrocinnamate-(L-ornithine-proline-D-cyclohexylalanine-tryptophan-arginine) [PMX205]
IL-10 expression in activated CD8+ T cells (activated CD8+ T cells [1]): slightly increased IL-10 expression

B1: IL-10: a cytokine with multiple, pleotropic effects in immunoregulation and inflammation (protein, UniProt P22301 19-178, looked up)
Interleukin-10: SPGQGTQSENSCTHFPGNLPNMLRDLRDAFSRVKTFFQMKDQLDNLLLKESLLEDFKGYLGCQALSEMIQFYLEEVMPQAENQDPDIKAHVNSLGENLKTLRLRLRRCHRFLPCENKSKAVEQVKNAFNKLQEKGIYKAMSEFDIFINYIEAYMTMKIRN
effector status (IFNγ and TNFα) of human CD4+ T cells (human CD4+ T cells): did not obviously alter the effector status
proliferative capacity of TILs ([3]; IL-10 added with IL-2: 6,000 U/mL rIL-2 plus 100 U/mL rIL-10, TILs from patients with lung cancer): robustly enhanced the proliferative capacity of TILs
proliferative capacity of TILs (entry into the cell cycle) ([3]; IL-10 alone, 100 U/mL rIL-10): did not drive TILs into the cell cycle
PD-1 expression on activated CD8+ T cells (activated CD8+ T cells [4]): did not modulate PD-1 expression
PD-L1 expression on tumor cells (B16F10 cells): not changed
expression of T-cell exhaustion markers (PD-1, LAG3, TIM3) [5]: not altered
effector status (IFNγ and TNFα) of mouse CD4+ T cells (mouse CD4+ T cells): did not obviously alter the effector status
expression of genes of signaling pathways (TCR signaling, Notch signaling, cell cycle, killing activity) ([6]; 20 days, FIG. 5F-I): upregulated genes related to several signaling pathways
expression of chemokine genes ([6]; FIG. 5J): variable depending on the specific chemokine
